Results reported in paper PMC314469, “Protein Interaction Networks by Proteome Peptide Scanning” (PLoS Biology, 2004).

T1: Boi2 SH3 (BOI2_YEAST), P39969
T1 chain: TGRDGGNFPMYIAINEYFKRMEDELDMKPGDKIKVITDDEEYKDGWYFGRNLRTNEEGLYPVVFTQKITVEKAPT

T2: Yhr016c SH3 (YSC84_YEAST), P32793
T2 chain: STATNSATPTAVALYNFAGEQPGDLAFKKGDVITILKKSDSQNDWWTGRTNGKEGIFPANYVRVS

T3: Boi1 SH3 (BOI1_YEAST), P38041
T3 chain: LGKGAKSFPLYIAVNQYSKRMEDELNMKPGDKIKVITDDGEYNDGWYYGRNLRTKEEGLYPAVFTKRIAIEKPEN

T4: Yfr024 SH3 (LSB3_YEAST), P43603
T4 chain: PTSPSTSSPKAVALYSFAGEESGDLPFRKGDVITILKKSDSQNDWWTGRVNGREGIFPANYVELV

T5: Rvs167 SH3 (RV167_YEAST), P39743
T5 chain: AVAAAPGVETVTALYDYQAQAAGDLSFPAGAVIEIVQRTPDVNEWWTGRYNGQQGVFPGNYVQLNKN


Experiments:
Assay in all cases: SPOT array
[1] = biological target: T1, Boi2 SH3 (BOI2_YEAST), P39969
[2] = biological target: T2, Yhr016c SH3 (YSC84_YEAST), P32793
[3] = biological target: T3, Boi1 SH3 (BOI1_YEAST), P38041
[4] = biological target: T4, Yfr024 SH3 (LSB3_YEAST), P43603
[5] = biological target: T5, Rvs167 SH3 (RV167_YEAST), P39743

| Binder | normalised SPOT signal, Boehringer light units (BLU); mean over the file's lines of this peptide [1] | normalised SPOT signal, Boehringer light units (BLU); mean over the file's lines of this peptide [2] | normalised SPOT signal, Boehringer light units (BLU); mean over the file's lines of this peptide [3] | normalised SPOT signal, Boehringer light units (BLU); mean over the file's lines of this peptide [4] | normalised SPOT signal, Boehringer light units (BLU); mean over the file's lines of this peptide [5] |
| --- | --- | --- | --- | --- | --- |
| NDDPVIPYKLSKDT [YHR164C 1037-1050] | 44.3 | 233 | 92.9 | 198 | 54.5 |
| NEVPTTPVRLILGQ [YOR195W 2-15] | 34.2 | 2090 | 76.1 | 2530 | 48.6 |
| MTAPLWPNKNEKNH [YOR337W 1-14] | 25.8 | 257 | 32.9 | 109 | 55.3 |
| MSLPVTPVKSKVSS [YER032W 50-63] | 37.9 | 257 | 0.6 | 2120 | 111 |
| MTDPDAPSKTDHKW [YLR178C 93-106] | 34.4 | 109 | -0 | 56.6 | 32.5 |
| MVRPAPPRRADPEG [Q0297 11-24] | 1310 | 7790 | 3640 | 18800 | 14400 |
| MPTPMTPVKVGALA [YNL040W 1-14] | 55 | 66.7 | 13.5 | 288 | 11 |
| MLIPNFPNKKLKLN [YHR086W 128-141] | 59.7 | 423 | 34.7 | 1090 | 70.8 |
| MKAPKMPDKHRDNY [YDL031W 923-936] | 162 | 399 | 163 | 1760 | 331 |
| MSEPEVPFKVVAQF [YJL020C 1-14] | 64.8 | 105 | 74.2 | 48.9 | 19.9 |
| MEYPFKPPKMQFDT [YDR177W 60-73] | 55.1 | 178 | 56.3 | 483 | 68.7 |
| NEGPEYPTKIEKNQ [YKL101W 777-790] | 33.6 | 109 | 125 | 127 | 20.8 |
| MQGPKIPWRSGRVD [YKR066C 186-199] | 651 | 13800 | 2850 | 15900 | 1270 |
| NANPFLPNKHPVTQ [YGR076C 38-51] | 54 | 352 | 28.5 | 1430 | 81.9 |
| MRAPPSPRKSKSGH [YOR255W 1-14] | 168 | 1100 | 81.1 | 1240 | 261 |
| NEYPSKPPKVKFPA [YDL064W 66-79] | 54.4 | 54.8 | 66.8 | 415 | 60.2 |
| MVTPSKPPKKSVGF [YCL063W 147-160] | 85.1 | 361 | 149 | 2650 | 114 |
| MTDPDAPSRTEHKW [YLR179C 77-90] | 34.4 | 239 | 124 | 122 | 23 |
| MVTPREPKKRTTRK [YPR052C 1-14] | 88.4 | 768 | 187 | 620 | 163 |
| MVLPPAPPKNSDPS [YFL036W 764-777] | 34.7 | 273 | 54 | 892 | 79.6 |
| NAKPPLPIKAVTRP [YJL201W 440-453] | 48.5 | 288 | 2020 | 1870 | 32.9 |
| NAPPYVPQRSKQPD [YBR114W 165-178] | 200 | 8020 | 558 | 11800 | 14300 |
